Key:
Test in all cases: IEDB peptide-MHC binding, purified MHC/competitive/radioactivity; filed as Kd, often an IC50 or EC50 that approximates it; ≥ and ≤ were set here for values at or beyond the usual limits of such assays
HLA-A*03:01 = molecular target: HLA-A*03:01
HLA-A*68:01 = molecular target: HLA-A*68:01
HLA-A*11:01 = molecular target: HLA-A*11:01
HLA-A*31:01 = molecular target: HLA-A*31:01
HLA-A*33:01 = molecular target: HLA-A*33:01
[1] = source organism: Vaccinia virus WR
[2] = source organism: Dengue virus 1 Nauru/West Pac/1974
[3] = source organism: Dengue virus 3 Sri Lanka/1266/2000
[4] = source organism: Dengue virus 3 Martinique/1243/1999
[5] = source organism: Lassa virus Josiah
[6] = source organism: SARS coronavirus Tor2
[7] = source organism: Mammarenavirus whitewaterense
[8] = source organism: Dengue virus 2 Jamaica/1409/1983
[9] = source organism: Dengue virus 4 Philippines/H241/1956

Sequence	Kd (HLA-A*03:01; [1]) [nM]	Kd (HLA-A*68:01; [1]) [nM]	Kd (HLA-A*11:01; [1]) [nM]	Kd (HLA-A*31:01; [1]) [nM]	Kd (HLA-A*33:01; [1]) [nM]	also measured
NTMCTEETK	≥ 78000	12.5	27.9	≥ 77900	15700	
DMMLMIGNY	≥ 47700	780	12700	11000	3820	
KIMEIVSHLR	73	2.42	3.61	0.559	63.5	
VSTVSQLAK						Kd (HLA-A*11:01; [2]): 248 nM
LIWAYLSKK	21.4	214	101	931	4940	
ATFIDVHIPK	9.21	3.44	0.269	915	43.4	
ETTHHAVSR						Kd (HLA-A*68:01; [3]): 19 nM; Kd (HLA-A*33:01; [3]): 4.66 nM
FIFSALDEK	156	24.5	65.1	≥ 49200	≥ 66800	
IMEIVSHLR	1960	3.25	219	11.9	53.3	
VLARWGTFK						Kd (HLA-A*03:01; [4]): 3.08 nM; Kd (HLA-A*11:01; [4]): 52.3 nM
RLQLSNGNR						Kd (HLA-A*03:01; source organism: Homo sapiens): 407 nM
TAVAKCNEKH						Kd (HLA-A*03:01; [5]): ≥ 70000 nM; Kd (HLA-A*68:01; [5]): ≥ 70100 nM; Kd (HLA-A*11:01; [5]): ≥ 69700 nM; Kd (HLA-A*31:01; [5]): ≥ 40100 nM; Kd (HLA-A*33:01; [5]): ≥ 61800 nM
LVCFPSTQR	698	10.8	40.6	37.5	73	
RNKRPRLCTR						Kd (HLA-A*31:01; [3]): 51.9 nM
IMSMMNITR	870	29.9	61.2	517	4.04	
LTAVCMKCFK	29.8	3.9	7.88	38.8	2050	
RLLACLCKHK						Kd (HLA-A*03:01; [6]): 0.221 nM; Kd (HLA-A*68:01; [6]): 8480 nM; Kd (HLA-A*11:01; [6]): 7.15 nM; Kd (HLA-A*31:01; [6]): 25.2 nM; Kd (HLA-A*33:01; [6]): 4450 nM
ASNAPSAAK						Kd (HLA-A*11:01; source organism: Homo sapiens): 14 nM
YLCGFIKQK						Kd (HLA-A*03:01; [6]): 511 nM; Kd (HLA-A*68:01; [6]): 6000 nM; Kd (HLA-A*11:01; [6]): 1650 nM; Kd (HLA-A*31:01; [6]): 3430 nM; Kd (HLA-A*33:01; [6]): ≥ 46700 nM
SLSPNDTTWI						Kd (HLA-A*03:01; [7]): ≥ 34600 nM; Kd (HLA-A*68:01; [7]): ≥ 70100 nM; Kd (HLA-A*11:01; [7]): ≥ 69700 nM; Kd (HLA-A*31:01; [7]): ≥ 32300 nM; Kd (HLA-A*33:01; [7]): ≥ 60700 nM
KFISDNKKEY	≥ 70100	≥ 40700	≥ 69800	427	≥ 70000	
MLSIINKRKK						Kd (HLA-A*03:01; [4]): 524 nM

Sequence	Kd (HLA-A*03:01; [1]) [nM]	Kd (HLA-A*68:01; [1]) [nM]	Kd (HLA-A*11:01; [1]) [nM]	Kd (HLA-A*31:01; [1]) [nM]	Kd (HLA-A*33:01; [1]) [nM]	also measured
SINKVYGRY	526	1990	195	140	≥ 77700	
QTPTKLMNK	210	178	306	≥ 22700	≥ 77700	
QLVFNSISAR	304	49.2	299	111	723	
RIENEMKINR	5560	803	2570	183	10800	
RVIDLGCGR						Kd (HLA-A*31:01; [4]): 1.21 nM
NAKVGDDVK	≥ 78000	478	389	10100	16900	
VSILASSLLK						Kd (HLA-A*03:01; [8]): 9 nM; Kd (HLA-A*11:01; [8]): 26.2 nM
AVMDIISRK						Kd (HLA-A*03:01; [9]): 4.94 nM; Kd (HLA-A*11:01; [9]): 107 nM
SACANGWIQY	1200	2890	59	≥ 55000	≥ 40500	
KSAGFPFNK						Kd (HLA-A*03:01; [6]): 8.65 nM; Kd (HLA-A*68:01; [6]): 69.5 nM; Kd (HLA-A*11:01; [6]): 3.88 nM; Kd (HLA-A*31:01; [6]): 31.8 nM; Kd (HLA-A*33:01; [6]): 4890 nM
FFLIVLLIPE						Kd (HLA-A*33:01; [8]): 327 nM
KVTEVKGYTK						Kd (HLA-A*11:01; source organism: Dengue virus 1 Brazil/97-11/1997): 212 nM
LLSGHNLAK						Kd (HLA-A*03:01; [6]): 4.61 nM; Kd (HLA-A*68:01; [6]): 6580 nM; Kd (HLA-A*11:01; [6]): 90.9 nM; Kd (HLA-A*31:01; [6]): 6690 nM; Kd (HLA-A*33:01; [6]): ≥ 77700 nM
HMFAGHLKCK						Kd (HLA-A*03:01; [9]): 7.4 nM
NVPERQLILR	18700	0.0657	323	87.8	2.86	
VQSKMSDVK						Kd (HLA-A*03:01; [6]): 4160 nM; Kd (HLA-A*68:01; [6]): ≥ 53500 nM; Kd (HLA-A*11:01; [6]): 198 nM; Kd (HLA-A*31:01; [6]): 7070 nM; Kd (HLA-A*33:01; [6]): ≥ 25000 nM
DMSHLKVALY	1810	854	3950	768	14700	
ETVKMGAFMY	≥ 70100	61.6	1570	≥ 31500	≥ 70000	
YQNKVVRVQR						Kd (HLA-A*31:01; [8]): ≥ 36700 nM
LITENKIWGR						Kd (HLA-A*31:01; [2]): ≥ 21100 nM
IAHINTLIQY	383	1510	975	8780	6860	
AFDAPTLYVK	2280	134	271	3840	≥ 56000	

Reference: the Immune Epitope Database (IEDB)
